Experiments:
Experiment in all cases: ELISA
interleukin 6 (IL-6) = interleukin 6 (IL-6) (Homo sapiens (assumed; ), UniProt P05231)
[1] = target: recombinant interleukin 11 (IL-11) (Homo sapiens (assumed; ), UniProt P20809)
[2] = target: recombinant SARS-CoV nucleocapsid protein (SCoV-N), His6-tagged (SARS-CoV, strain CUHK-W1, UniProt P59595)
Sequence of recombinant SARS-CoV nucleocapsid protein (SCoV-N), His6-tagged (P59595 whole entry): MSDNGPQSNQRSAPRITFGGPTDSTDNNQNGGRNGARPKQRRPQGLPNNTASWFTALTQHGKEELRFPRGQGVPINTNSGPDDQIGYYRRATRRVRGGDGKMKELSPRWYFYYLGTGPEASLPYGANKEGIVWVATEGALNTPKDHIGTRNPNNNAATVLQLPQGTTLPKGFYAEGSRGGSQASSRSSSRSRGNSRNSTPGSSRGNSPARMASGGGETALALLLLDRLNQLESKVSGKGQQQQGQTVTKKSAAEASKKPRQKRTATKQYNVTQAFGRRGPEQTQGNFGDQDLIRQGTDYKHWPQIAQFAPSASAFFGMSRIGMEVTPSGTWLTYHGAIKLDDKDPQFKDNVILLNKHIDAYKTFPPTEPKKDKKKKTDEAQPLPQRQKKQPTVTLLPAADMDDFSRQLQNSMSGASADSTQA

Sequence of recombinant interleukin 11 (IL-11) (P20809 22-199): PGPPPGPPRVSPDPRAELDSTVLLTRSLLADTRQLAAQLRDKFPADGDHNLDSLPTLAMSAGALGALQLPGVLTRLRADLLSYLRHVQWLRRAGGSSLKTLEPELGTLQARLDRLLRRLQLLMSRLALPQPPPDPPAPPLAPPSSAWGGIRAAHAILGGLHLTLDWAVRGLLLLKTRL
Sequence of interleukin 6 (IL-6) (P05231 30-212): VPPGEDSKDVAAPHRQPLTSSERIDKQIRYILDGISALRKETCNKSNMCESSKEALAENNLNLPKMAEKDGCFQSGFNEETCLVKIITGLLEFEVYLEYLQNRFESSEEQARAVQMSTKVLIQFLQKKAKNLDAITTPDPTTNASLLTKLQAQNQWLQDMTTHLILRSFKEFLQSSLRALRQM

B1: anti-N scFv L9N01 (scFv-phage clone) (scFv, V domains shown)
VH: GEAAAVQGTEVVKPGASVKLSCKASGYIFTSYDIDWVRQTPEQGLEWIGWIFPGEGSTEYNEKFKGRATLSVDKSSSTAYMELTRLTSEDSAVYFCARGDYYRRYFDLWGQGTTVTVSS
VL: DIELTQSPAIMSASPGERVTMTCSASSSIRYIYWYQQKPGSSPRLLIYDTSNVAPGVPFRFSGSGSGTSYSLTINGMEAEDAATYYCQEWSGYPYTFGGGTKLELK
**Q.** Does B1 bind (interleukin 6 (IL-6))?
**A.** Result: no binding

**Q.** Does B1 bind [1]?
**A.** Result: binds

**Q.** Does B1 bind [2]?
**A.** Result: binds
